Measured values as given in paper PMC9867979, “Pab1 acetylation at K131 decreases stress granule formation in Saccharomyces cerevisiae”.

Target: Pab1 RRM1-RRM2 (Saccharomyces cerevisiae, UniProt P04147 38-203)
Test: EMSA; protein titration up to 5000 nM; EMSA: 1x binding buffer (from 5x: 50 mM Tris-HCl pH 7.5, 750 mM KCl, 0.5 mM EDTA, 0.5 mM DTT) = 10 mM Tris-HCl, 150 mM KCl, 0.1 mM EDTA, 0.1 mM DTT, plus protein buffer (20 mM Tris-HCl pH 7.4, 100 mM KOAc, 2 mM MgOAc, 10% glycerol); 20 ul, 30 C, 30 min; 10% native PAGE, 0.4x TBE, 4 C
Details: protein: recombinant; tags: GST (pGEX-4T-1), removed with thrombin; label: Cy5 at both ends (as named); single strand

Pab1 RRM1-RRM2, sequence (P04147 38-203): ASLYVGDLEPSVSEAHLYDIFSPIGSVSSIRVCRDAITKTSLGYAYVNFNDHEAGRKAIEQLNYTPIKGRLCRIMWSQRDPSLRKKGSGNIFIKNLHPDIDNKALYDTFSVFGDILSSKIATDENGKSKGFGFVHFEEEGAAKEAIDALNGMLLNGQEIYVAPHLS

Q: Does AAAAAAAAAAAAAAAAAAAA (ssRNA) [Cy5-Poly(A)20-Cy5] bind?
A: binds
